Each block holds one binder with its values, some of them ahead of it.
Molecular target: T1, Human LIGHT-214E, full length, expressed on cells (human, UniProt O43557 1-240)
T1 construct: also called membrane LIGHT
Test: flow cytometry, HEK293FF human LIGHT cells

EC50: 45 nM
B1: HVEM-Fc (R&D Systems) (Fc fusion, UniProt Q92956 37-202, looked up)
chain: PALPSCKEDEYPVGSECCPKCSPGYRVKEACGELTGTVCEPCPPGTYIAHLNGLSKCLQCQMCDPAMGLRASRNCSRTENAVCGCSPGHFCIVQDGDHCAACRAYATSSPGQRVQKGGTESQDTLCQNCPPGTFSPNGTLEECQHQTKCSWLVTKAGAGTSSSHWV
notes: unlabelled in the Fab screen; also called biotin-HVEM-Fc; not shown: Fc part of the bought fusion; not described

EC50: 15 nM
B2: LTβR-Fc (R&D Systems) (Fc fusion, UniProt P36941 28-227, looked up)
chain: SQPQAVPPYASENQTCRDQEKEYYEPQHRICCSRCPPGTYVSAKCSRIRDTVCATCAENSYNEHWNYLTICQLCRPCDPVMGLEEIAPCTSKRKTQCRCQPGMFCAAWALECTHCELLSDCPPGTEAELKDEVGKGNNHCVPCKAGHFQNTSSPSARCQPHTRCENQGLVEAAPGTAQSDTTCKNPLEPLPPEMSGTMLM
notes: also called LTBR-Fc; biotin-LTβR-Fc; not shown: Fc part of the bought fusion; not described

Reference: patent publication US20210284747A1 (CAPELLA BIOSCIENCE, published 2021)
